From PMC6944315
Where “and” joins values, the source holds several entries; their conditions need not be identical. Equal values may be shown once.

Legend:
[1] = molecular target: CmSQR truncated 1 (T1), lacking the complete last C-terminal helix (Caldivirga maquilingensis IC-167); test: SEC
[2] = molecular target: CmSQR truncated 1 (T1), lacking the complete last C-terminal helix (Caldivirga maquilingensis IC-167); test: native gel or EMSA
[3] = molecular target: CmSQR truncated 2 (T2), lacking the last two C-terminal helices, His-tagged (Caldivirga maquilingensis IC-167); test: SEC
[4] = molecular target: CmSQR truncated 2 (T2), lacking the last two C-terminal helices, His-tagged (Caldivirga maquilingensis IC-167); test: native gel or EMSA
[5] = molecular target: CmSQR truncated 2 (T2), lacking the last two C-terminal helices, His-tagged (Caldivirga maquilingensis IC-167); test: cross-linking
[6] = molecular target: Caldivirga maquilingensis type III sulfide:quinone oxidoreductase, wild type, His-tagged (Caldivirga maquilingensis IC-167); test: SEC

## CmSQR truncated 1 (T1), lacking the complete last C-terminal helix (domain or fragment)
[1]
  stoichiometry N: 2
[2]
  stoichiometry N: 2

## CmSQR truncated 2 (T2), lacking the last two C-terminal helices, His-tagged (domain or fragment)
[3]
  stoichiometry N: 2
[4]
  stoichiometry N: 2 and 3
[5]
  stoichiometry N: 2 and 3

## Caldivirga maquilingensis type III sulfide:quinone oxidoreductase, wild type, His-tagged (enzyme)
[6]
  stoichiometry N: 2
